Consider four molecules from patent publication US20260364189 (published 2026).

What is called Kd is the equilibrium constant for the complex coming apart.

Residue numbers refer to the chain shown, from its start.

Assay [1] deals with hTFR1-His (human, UniProt P02786). As to the kind of experiment: SPR.
In assay [2] the target is T1, fasTFR1 (cell-expressed) (Macaca fascicularis).
T1 chain: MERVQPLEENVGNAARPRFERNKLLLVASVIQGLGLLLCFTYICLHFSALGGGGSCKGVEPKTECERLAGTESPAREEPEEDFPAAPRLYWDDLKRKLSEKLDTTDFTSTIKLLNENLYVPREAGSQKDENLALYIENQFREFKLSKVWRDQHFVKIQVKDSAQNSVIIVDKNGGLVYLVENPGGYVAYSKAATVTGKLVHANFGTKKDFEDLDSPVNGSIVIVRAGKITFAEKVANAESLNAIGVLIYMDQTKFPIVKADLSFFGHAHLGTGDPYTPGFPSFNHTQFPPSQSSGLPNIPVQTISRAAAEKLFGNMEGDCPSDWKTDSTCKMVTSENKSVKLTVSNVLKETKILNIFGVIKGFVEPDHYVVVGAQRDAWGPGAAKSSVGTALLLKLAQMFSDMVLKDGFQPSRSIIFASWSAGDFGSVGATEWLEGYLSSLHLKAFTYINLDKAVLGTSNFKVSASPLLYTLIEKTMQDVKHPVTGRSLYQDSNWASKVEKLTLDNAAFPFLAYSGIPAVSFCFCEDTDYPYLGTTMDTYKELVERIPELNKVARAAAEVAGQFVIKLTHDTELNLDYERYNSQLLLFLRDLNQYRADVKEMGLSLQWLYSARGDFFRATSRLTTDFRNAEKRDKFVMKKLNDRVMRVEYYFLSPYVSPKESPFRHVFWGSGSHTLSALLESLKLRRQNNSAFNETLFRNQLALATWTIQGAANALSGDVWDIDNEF
The assay can be described thus: FACS. In general terms: A flow cytometer gives signals particle by particle.

Chain of hTFR1-His (P02786 89-760): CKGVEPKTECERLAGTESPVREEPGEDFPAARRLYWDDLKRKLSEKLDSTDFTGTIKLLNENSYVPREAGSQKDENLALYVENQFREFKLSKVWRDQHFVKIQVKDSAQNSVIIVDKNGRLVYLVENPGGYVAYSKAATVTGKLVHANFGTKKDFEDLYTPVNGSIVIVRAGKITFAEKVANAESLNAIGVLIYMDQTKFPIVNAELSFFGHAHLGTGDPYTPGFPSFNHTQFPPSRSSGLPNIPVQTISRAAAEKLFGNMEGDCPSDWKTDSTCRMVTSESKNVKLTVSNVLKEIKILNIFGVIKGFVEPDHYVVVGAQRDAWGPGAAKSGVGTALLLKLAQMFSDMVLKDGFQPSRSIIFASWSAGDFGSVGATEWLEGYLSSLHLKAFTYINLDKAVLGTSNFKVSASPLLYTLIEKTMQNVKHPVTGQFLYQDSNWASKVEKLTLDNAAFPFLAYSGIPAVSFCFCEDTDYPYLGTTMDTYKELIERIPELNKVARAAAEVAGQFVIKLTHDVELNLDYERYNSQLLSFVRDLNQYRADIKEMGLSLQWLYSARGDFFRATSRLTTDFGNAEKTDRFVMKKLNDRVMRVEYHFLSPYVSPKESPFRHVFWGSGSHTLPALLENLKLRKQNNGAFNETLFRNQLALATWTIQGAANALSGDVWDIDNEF

B1: 23B8 (antibody, V domains shown)
VH: QVTLKESGGGLVKPGGSLRLSCAASGFPFSNAWMNWVRQAPGKGLEWVGHIKSKTDGGTTDYAAPVKGRFTISRDDSKNMVFLQMNSLKTEDTAVYYCTTDRAYCGGDCSHYYYHDLDVWGQGTTVTVSS
As for B1, the Kd in assay [1] stood at 8.73 nM.

B2: 24C9 (antibody, V domains shown)
VH: EVQLVQSGGGVVQPGRSLRLSCAASGFTLSSYGMYWVRQAPGKGREWVAFIRFDESKKYYADSVKGRFTISRDNSKNTLYLQMNSLRAEDTAVYYCARDGEGGYCTNGVCHGLDVWGQGTTVTVSS
For B2, the binding result in assay [2] was “no binding”. Besides, the affinity in assay [1], expressed as Kd, was 14.3 nM.

B3: 24G5 (designed binder)
chain: QLQLQESGGGLVQPGGSLRLTCAASGFTFSSFAMSWVRQAPGKGLERVSEISDSGGNTYYADSVKGRFTISRDNSKNTLYLQMNSLRAEDTAVYYCAKDDSSGWAFNIWDQGTVVTVSS
For B3, in assay [1], the Kd came out at 2.05 nM.

B4: 24A1 (designed binder)
chain: B3 chain with Q1E, L2V, Q5V, F32Y, D53G, G56S, N57S, Y59N
The molecule B4 returned a Kd in assay [1] of 2.93 nM.
